B1: anti-lysozyme DNA aptamer (ssDNA)
DNA: ATCAGGGCTAAAGAGTGCAGAGTTACTTAG
modifications: 5' NH2-(CH2)6, amide-coupled to PBASE on graphene
B2: anti-thrombin DNA aptamer (structured_DNA)
DNA: CCATCTCCACTTGGTTGGTGTGGTTGG
modifications: 5' NH2-(CH2)6, amide-coupled to PBASE on graphene

Assays:
thrombin [1] = molecular target: T1, thrombin (human (plasma), UniProt P00734;P00734 328-363;364-622); assay: graphene FET, Dirac voltage shift
thrombin [2] = molecular target: T1, thrombin; assay: graphene FET, Dirac voltage shift; remark: listed apart in the source
thrombin [3] = molecular target: T1, thrombin; assay: graphene FET, real-time drain current

Binder | binding result (thrombin [1]) | Kd (thrombin [2]) [nM] | Kd (thrombin [3]) [nM]
B1 | no binding | – | –
B2 | – | 0.376 | 0.732

Source: paper PMC7478360
